Data taken from patent US20070243194A1 (Biogen, published 2007).

B1: M14-C03.G4.P.agly (antibody, human IgG4 S228P, kappa, V domains shown)
VH: EVQLLESGGGLVQPGGSLRLSCAASGFTFSKYMMSWVRQAPGKGLEWVSYISPSGGLTWYADSVKGRFTISRDNSKNTLYLQMNSLRAEDTAVYYCARDGARGYGMDVWGQGTTVTVSS
VL: DIQMTQSPATLSLSPGERATLSCRASQSVSSYLAWYQQKPGQAPRLLIYDASNRATGIPARFSGSGSGTDFTLTISSLEPEDFAVYYCQQRSNWPPEVTFGPGTKVDIKR
B2: M13-C06.G4.P.agly (antibody, human IgG4 S228P, kappa, V domains shown)
VH: EVQLLESGGGLVQPGGSLRLSCAASGFTFSIYRMQWVRQAPGKGLEWVSGISPSGGTTWYADSVKGRFTISRDNSKNTLYLQMNSLRAEDTAVYYCARWSGGSGYAFDIWGQGTMVTVSS
VL: DIQMTQSPLSLSASVGDRVTITCQASRDIRNYLNWYQQKPGKAPKLLIYDASSLQTGVPSRFGGSGSGTDFSFTIGSLQPEDIATYYCQQFDSLPHTFGQGTKLEIKR
B3: M14-G11.G4.P (antibody, V domains shown)
VH: EVQLLESGGGLVQPGGSLRLSCAASGFTFSNYPMYWVRQAPGKGLEWVSRISSSGGRTVYADSVKGRFTISRDNSKNTLYLQMNSLRAEDTAVYYCARDRWSRSAAEYGLGGYWGQGTLVTVSS
VL: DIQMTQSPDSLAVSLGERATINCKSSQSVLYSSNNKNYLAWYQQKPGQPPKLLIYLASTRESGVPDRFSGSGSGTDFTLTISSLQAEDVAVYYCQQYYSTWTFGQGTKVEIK

Molecular target: human IGF-1R on cells (human, UniProt P08069 31-740; P08069 741-1367)
Sequence (P08069 31-740, chain 1 of 2): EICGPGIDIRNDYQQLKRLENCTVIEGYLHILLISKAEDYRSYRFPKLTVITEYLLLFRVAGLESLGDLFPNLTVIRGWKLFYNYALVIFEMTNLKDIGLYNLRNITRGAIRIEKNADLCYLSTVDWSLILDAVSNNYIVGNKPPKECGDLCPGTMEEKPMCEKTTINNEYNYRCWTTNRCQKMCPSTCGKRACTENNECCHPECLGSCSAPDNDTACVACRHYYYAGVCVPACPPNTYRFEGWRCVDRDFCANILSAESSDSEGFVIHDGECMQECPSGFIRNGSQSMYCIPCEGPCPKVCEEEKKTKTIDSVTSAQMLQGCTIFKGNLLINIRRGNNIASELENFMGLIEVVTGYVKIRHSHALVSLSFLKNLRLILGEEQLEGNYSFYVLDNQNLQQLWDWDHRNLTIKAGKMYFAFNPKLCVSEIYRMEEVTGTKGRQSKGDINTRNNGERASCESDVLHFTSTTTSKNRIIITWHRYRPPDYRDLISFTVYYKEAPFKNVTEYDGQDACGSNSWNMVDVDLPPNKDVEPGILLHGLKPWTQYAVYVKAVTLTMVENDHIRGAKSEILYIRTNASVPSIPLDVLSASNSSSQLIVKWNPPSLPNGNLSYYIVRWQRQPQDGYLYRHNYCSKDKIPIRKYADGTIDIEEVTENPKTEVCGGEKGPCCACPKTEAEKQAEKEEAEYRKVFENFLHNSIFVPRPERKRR
Sequence (P08069 741-1367, chain 2 of 2): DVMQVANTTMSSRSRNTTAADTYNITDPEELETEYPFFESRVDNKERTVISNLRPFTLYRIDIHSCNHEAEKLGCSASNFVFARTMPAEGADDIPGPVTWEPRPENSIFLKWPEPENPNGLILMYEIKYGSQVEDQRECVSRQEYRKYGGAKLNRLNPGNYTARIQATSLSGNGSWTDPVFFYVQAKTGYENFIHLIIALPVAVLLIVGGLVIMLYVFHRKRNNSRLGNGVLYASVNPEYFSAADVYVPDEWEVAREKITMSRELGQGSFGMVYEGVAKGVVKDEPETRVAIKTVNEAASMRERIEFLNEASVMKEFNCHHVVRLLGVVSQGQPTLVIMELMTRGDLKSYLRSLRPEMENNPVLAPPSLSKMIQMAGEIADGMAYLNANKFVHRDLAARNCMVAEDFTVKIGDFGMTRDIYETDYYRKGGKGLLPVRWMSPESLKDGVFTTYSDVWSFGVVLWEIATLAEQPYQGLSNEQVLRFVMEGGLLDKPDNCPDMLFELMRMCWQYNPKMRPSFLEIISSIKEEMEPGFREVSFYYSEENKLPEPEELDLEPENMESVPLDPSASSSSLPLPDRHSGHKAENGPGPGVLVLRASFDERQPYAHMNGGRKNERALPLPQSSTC
Experiment: cell-based or functional assay

Binder | inhibition of IGF-1 and IGF-2 mediated IGF-1R receptor phosphorylation, EC50
B1 | < 1 nM
B2 | < 1 nM
B3 | < 1 nM
